Experimental findings from the nanobody polyreactivity screen of Harvey et al. (2022) are described below.

This series is described as follows: yeast display, Sf9 membrane polyspecificity reagent, FACS + sequencing; frameworks hold sequencing errors. A digest of the protocol: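 Nanobodies came from a synthetic yeast display library in Saccharomyces cerevisiae BJ5465, induced with galactose for 36–48 hours and stained for 1 hour at 4 °C with 10% biotinylated, detergent-solubilized Sf9 membrane reagent. Cells were enriched on streptavidin microbeads and then FACS-sorted, with low and high (top ~1%) gates set on anti-HA fluorescence for expression and streptavidin fluorescence for reagent binding. Each polyreactivity label reflects the gate a clone came from. Genes were amplified by colony PCR, sequenced by MiSeq 2 × 250 and filtered by CDR length.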
“QVQLVESGGGLVQAGGSLRLSCAASGRTFYPNAMGWYRQAPGKERELVAAITWRSGSTYYADSVKGRFTISRDNAKNTVYLPMNSLKPEDTAVYYCNADSDYPYYPGKFDYWGQGTQVTVSS”: the “polyreactivity (PSR sort gate)” value is on record as “low polyreactivity”.

Take “QVQLVESGGGLVQAGGSLRLSCAASGRTFYPYAMGWYRQAPGKERELVAAIRSSGGTTYYADSVKGRFTISRDNAKNTVYLQMNSLKPEDTAVYYCAAYVDRQGGYYWGQGTQVTVSS”: the “polyreactivity (PSR sort gate)” value is listed as “high polyreactivity”.

Consider “QVQLVESGGGLVQAGGSLRLSCAASGRTFYPYAMGWYRQAPGKERELVAAISSSGGSTYYADSVKGRFTISRDNAKNTVYLQMNSLKPEDTAVYYCAAAVYLQYLDDPTYGYWGQGTQVTVSS”, for which the “polyreactivity (PSR sort gate)” value is “high polyreactivity”.

Take “QVQLVESGGGLVQAGGSLRLSCAASGRTFYPYAMGWYRQAPGKERELVAAITISVGSTYYADSVKGRFTISRDNAKNTVYLQMNSLNPEDTAVYYCAAANTPEYDYWGQGTQVTVSS”: the “polyreactivity (PSR sort gate)” value is listed as “low polyreactivity”.

Turning to “QVQLVESGGGLVQAGGSLRLSCAASGRTFYPYAMGWYRQAPGKERELVARISRGGRTNYADSVKGRFTISRDNAKNTVYLQMNSLKPEDTAVYYCAADYYGSYFITEDYWGQGTQVTVSS”, the “polyreactivity (PSR sort gate)” value was “low polyreactivity”.

In the case of “QVQLVESGGGLVQAGGSLRLSCAASGRTFYPYARGWYREAPGKERELVAAISSNGVLTYYADSVKGRFTISRDNAKKSVYLQMNSLKPEDTAVYYCAARKPYVYHLDSWGQGTQVTVSS”, the “polyreactivity (PSR sort gate)” value is “high polyreactivity”.

As for “QVQLVESGGGLVQAGGSLRLSCAASGRTFYRKAMGWYIQAPGKEREFVAVISVSGGSTYYADSVKGRFTISRDNAKITVYLQMNSLKPEDTAVYYCAKRGPVRKTAYDYWGQGTQVTVSS”, the “polyreactivity (PSR sort gate)” value is given as “low polyreactivity”.

As for “QVQLVESGGGLVQAGGSLRLSCAASGRTFYRNAMGWYIQAPGKERELVAAITWSGVSTYYADSVKGRFTISRDNAKNTVYLQMNSLKPEDTAVYYCARGRVLRNGHYFQLRNYDYWGQGTQVTVSS”, the “polyreactivity (PSR sort gate)” value is “high polyreactivity”.

Consider “QVQLVESGGGLVQAGGSLRLSCAASGRTFYRNAMGWYRQAPGIERELVAVISQRGGRTFYADSVKGRFTISRDNAKNTVYLQMNSLKPEDTAVYYCAAPTQSYAHQGFGYWGQGTQVTVSS”, for which the “polyreactivity (PSR sort gate)” value is on record as “high polyreactivity”.

Consider “QVQLVESGGGLVQAGGSLRLSCAASGRTFYRNAMGWYRQAPGKERELVAAITTSGGRTYYADSVKGRFTISRDNAKNTVYLQMNSLKPEDTAVYYCNAVYYGRTYASGYDYWGQGTQVTVSS”, for which the “polyreactivity (PSR sort gate)” value is recorded as “high polyreactivity”.

For “QVQLVESGGGLVQAGGSLRLSCAASGRTFYRNAMGWYRQAPGKERELVATINSGGSTHYADSVKGRFTISRDNAKNSVYLQMNSLKPEDTAVYYCAARSPSYRGSLSYYWGHGTQVTVSS”, the “polyreactivity (PSR sort gate)” value is “high polyreactivity”.

“QVQLVESGGGLVQAGGSLRLSCAASGRTFYRNAMGWYRQAPGKERELVATITRRGGSTYYADSVKGRFTISRDNAKNTVYLQMISLKPEDTAVYYCAAGSKDLYRPYDYWGQGTQVTVSS”: the “polyreactivity (PSR sort gate)” value is “high polyreactivity”.

In the case of “QVQLVESGGGLVQAGGSLRLSCAASGRTFYRNAMGWYRQAPGKERELVATITRRGGSTYYADSVKGRFTISRDNAKNTVYLQMNSLKPEDTAVYYCAAGSKDLYRPYDYWGQGTQVTVSS”, the “polyreactivity (PSR sort gate)” value is reported as “high polyreactivity”.

In the case of “QVQLVESGGGLVQAGGSLRLSCAASGRTFYRNDMVWYRQSPGKERELVARITSGGSTNYADSVKGRFTISRDNAKNTVYLQMNSLKPEDTGVYYCAAVSRYYPYGYWGQGTQVTVSS”, the “polyreactivity (PSR sort gate)” value is “high polyreactivity”.

Turning to “QVQLVESGGGLVQAGGSLRLSCAASGRTFYRYAMGWYRHAPGKERELVASITRGTSTNYADSVKGRFTISRDNAKNTVYLQMNSLKPEDTAVYYCNRRIFGGQRMYYWGQGTQVTVSS”, the “polyreactivity (PSR sort gate)” value was “high polyreactivity”.

For the sequence “QVQLVESGGGLVQAGGSLRLSCAASGRTFYRYAMGWYRQAPGKEREFVAAISRCGGSTYYADSVKGRFTISRDNAKNTVFLQMNRLKPEDTGVYYCNADTRAGGFYTPYGRDYWGQGSQVTVSS”, the “polyreactivity (PSR sort gate)” value was “high polyreactivity”.
